Tests used:
[1] = target: T1, Human CLDN18.2 (human); assay: flow cytometry, NUGC4-hCLDN18.2 cells
T1 construct: the cell line is named under assay; also called hCLDN18.2; human CLDN18.2 antigen
Protocol: NUGC4 and NUGC4-hCLDN18.2 cells were cultured, digested with pancreatin and centrifuged to collect cells. The cells were collected and resuspended in buffer (PBS+1% FBS) at 1×10⁴ cells/well in a 96-well plate at 100 μL per well. Then the mixture was centrifuged at 350×g for 5 min, and the supernatant was removed.

[2] = target: T1, Human CLDN18.2; assay: flow cytometry, NUGC4 cells (endogenous CLDN18.2)
[3] = target: T2, Human CLDN18.1 (human, UniProt P56856 1-261); assay: flow cytometry, 293T-hCLDN18.1 cells
T2 construct: also called hCLDN18.1

[4] = target: T1, Human CLDN18.2; assay: cell-based or functional assay

Binder | EC50 [1] [nM] | EC50 [2] [nM] | binding result [3] | EC50 value for killing effect on NUGC4-hCLDN18.2 cells [4] [nM] | EC50 value for killing effect on NUGC4 cells [4] [nM]
bispecific antibody CS10 (bispecific antibody, human IgG1, kappa, CSBODY structure: two 1E9.2 Fab arms; second heavy chain (first heavy entry) and first heavy chain with anti-CD3 scFv (L2K) between CH1 and Fc2) light: not shown heavy 1: EVQLVESGGGLVKPGGSLRLSCAASGFSFSNSAMSWVRQAPGKGLEWVSTISSGDSYTYYADSVKGRFTISRDNAKNSLYLQMNSLRAEDTAVYYCARQGYGNALDYWGQGTLVTVSSASTKGPSVFPLAPSSKSTSGGTAALGCLVKDYFPEPVTVSWNSGALTSGVHTFPAVLQSSGLYSLSSVVTVPSSSLGTQTYICNVNHKPSNTKVDKKVEPKSCDKTHTCPPCPAPPVAGPSVFLFPPKPKDTLMISRTPEVTCVVVDVSHEAPEVQFNWYVDGVEVHNAKTKPREEQFNSTFRVVSVLTVVHQDWLNGKEYKCKVSNKGLPAPIEKTISKTKGQPREPQVYTLPPCRDELTKNQVSLWCLVKGFYPSDIAVEWESNGQPENNYKTTPPVLDSDGSFFLYSKLTVDKSRWQQGNVFSCSVMHEALHNHYTQKSLSLSPGK heavy 2: not shown | < 50 | < 100 | no binding | < 0.01 | < 0.01
bispecific antibody CS11 (bispecific antibody, human IgG1, kappa, CSBODY structure: two 2C6.9 Fab arms; second heavy chain (first heavy entry) and first heavy chain with anti-CD3 scFv (L2K) between CH1 and Fc2) light: not shown heavy 1: QVQLQESGPGLVKPSETLSLTCTVSGFSLTRYGVSWIRQPPGKGLEWIGVIWGEGNTNYNPSLKSRVTISKDSSKSQVSLKLSSVTAADTAVYYCARVNFGNALDYWGQGTLVTVSSASTKGPSVFPLAPSSKSTSGGTAALGCLVKDYFPEPVTVSWNSGALTSGVHTFPAVLQSSGLYSLSSVVTVPSSSLGTQTYICNVNHKPSNTKVDKKVEPKSCDKTHTCPPCPAPPVAGPSVFLFPPKPKDTLMISRTPEVTCVVVDVSHEAPEVQFNWYVDGVEVHNAKTKPREEQFNSTFRVVSVLTVVHQDWLNGKEYKCKVSNKGLPAPIEKTISKTKGQPREPQVYTLPPCRDELTKNQVSLWCLVKGFYPSDIAVEWESNGQPENNYKTTPPVLDSDGSFFLYSKLTVDKSRWQQGNVFSCSVMHEALHNHYTQKSLSLSPGK heavy 2: not shown | < 50 | < 100 | no binding | < 0.01 | < 0.01

— patent US20230192903A1 (published 2023)
